Assay [1] deals with T1, Structural Maintenance of Chromosome-1A (SMC1A) (human, UniProt Q14683 1-1233).
T1 construct: whole, on cells; Endogenous antigen; It is on live or fixed cells in flow cytometry, LI-COR cell surface assay, ICC and immunogold EM, and in cell lysates in Western blot and immunoprecipitation; No recombinant SMC1A was used; also called SMC1A antigen; surface SMC1
T1 sequence (looked up): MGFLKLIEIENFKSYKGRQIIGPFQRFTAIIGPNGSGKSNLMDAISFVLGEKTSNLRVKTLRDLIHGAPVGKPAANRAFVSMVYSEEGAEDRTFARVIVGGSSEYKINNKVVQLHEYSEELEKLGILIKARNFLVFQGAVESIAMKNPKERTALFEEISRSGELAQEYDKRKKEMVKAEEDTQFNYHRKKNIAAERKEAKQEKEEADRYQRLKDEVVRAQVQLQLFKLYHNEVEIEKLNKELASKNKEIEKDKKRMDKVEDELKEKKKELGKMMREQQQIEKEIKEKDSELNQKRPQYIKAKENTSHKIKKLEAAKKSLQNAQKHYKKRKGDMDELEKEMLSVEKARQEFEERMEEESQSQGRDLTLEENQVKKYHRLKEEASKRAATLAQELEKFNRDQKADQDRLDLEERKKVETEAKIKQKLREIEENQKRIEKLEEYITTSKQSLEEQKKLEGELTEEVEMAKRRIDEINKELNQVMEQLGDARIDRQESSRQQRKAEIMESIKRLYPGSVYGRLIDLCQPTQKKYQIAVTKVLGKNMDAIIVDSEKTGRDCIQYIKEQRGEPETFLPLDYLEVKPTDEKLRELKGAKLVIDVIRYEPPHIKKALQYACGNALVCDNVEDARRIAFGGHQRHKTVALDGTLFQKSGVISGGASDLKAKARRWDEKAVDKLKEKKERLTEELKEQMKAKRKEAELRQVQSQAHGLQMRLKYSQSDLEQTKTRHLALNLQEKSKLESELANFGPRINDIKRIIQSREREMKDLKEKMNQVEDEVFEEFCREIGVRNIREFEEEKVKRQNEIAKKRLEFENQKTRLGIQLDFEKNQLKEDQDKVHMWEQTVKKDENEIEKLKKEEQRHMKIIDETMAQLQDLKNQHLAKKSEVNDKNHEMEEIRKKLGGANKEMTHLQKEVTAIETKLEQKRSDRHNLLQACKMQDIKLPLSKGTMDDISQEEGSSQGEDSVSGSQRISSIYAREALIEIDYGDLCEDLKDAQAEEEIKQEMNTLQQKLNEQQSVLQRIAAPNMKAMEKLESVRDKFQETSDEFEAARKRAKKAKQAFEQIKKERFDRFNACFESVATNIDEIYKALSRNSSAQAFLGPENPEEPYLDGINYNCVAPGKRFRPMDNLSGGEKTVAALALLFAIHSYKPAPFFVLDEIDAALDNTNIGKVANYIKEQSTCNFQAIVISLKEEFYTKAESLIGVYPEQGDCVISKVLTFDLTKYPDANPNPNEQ
The experiment in a line: LI-COR based cell surface assay on tumor cells.

Assay [2] has as its target T1, Structural Maintenance of Chromosome-1A …. Description: immunoprecipitation, then Western blot with the Bethyl anti-human SMC1A polyclonal antibody. (In general: Immunoblotting shows a protein as a band on a membrane.)
The target is the same in assay [3]. Description: Western blot of HCT116, HT29 and MDA-MB-231 lysates, 1 ug/ml. The method, then:
For each Westem blot, the cell lysates used as samples were from HCT116 cells (1), HT29 cells (2) and MDA-MB-231 cells (3). […] The secondary antibody used was an anti-human-HRP (dilution 1:3000) and incubated for 1 hour at room temperature with the overnight incubations.

B1: SMC1-Beta (antibody, V domains shown)
VH: EVKLQESGPELVKSGASVKIPCKASGYTFTDFNIEWVKQNRGKSLEWIGDINPSNGETIYNKKFKGKATLTVDKSSTTAFMELRSLTSEDTAVYYCARDHYYGYDYDAMDYWGQGTSVTVSS
VL: QIVLTQSPAIMSASPGEKVTMTCSASSSIGYMHWYQQKPGTSPKRWIYDRSKLASGVPARFSGSGSGTSFSLTISSMEAEDAATYYCHQRSRYPYTFGGGTKLEIKR
With B1, in assay [1], the binding result is recorded as “binds”.

B2: SMC1A4-chimeric antibody (antibody, V domains shown)
VH: VQLQQSGAELVKPGASVKLSCTASGFNIKDPYMHWVKQRPEQGLEWIGWITPANGNTKYDPKFQAKATITADTYSNTAYLQFSSLTSEDTAVYFCARSGDAYYWAWFAYWGQGTLVTVSA
VL: DVLMTQTPLSLTVSLGDQASISCRSSQSIVHSNGNTYLEWYLQKPGQSPKLLIYKVSNRFSGVSDRFSGSGSGTDFTLKISRVEAEDLGVYYCFQGPLYTFGGGTKLEIKR
notes: Chimeric IgG detected with anti-human secondary antibodies; also called chimeric SMC1A4; SMC1A4 chimeric monoclonal antibody
Regarding B2, in assay [2], the binding result is recorded as “binds”.

B3: SMC1A1 (antibody, V domains shown)
VH: VTLKESGPGILQPSQTLSLTCSFSGFSLSTSGMGVGWIRQPSGKGLEWLAHIWWDDDQYSNTALRSGLTISKDTSKNQVFLKIASVDTSDTATYYCARVTTDAVDYWGQGTSVTVSS
VL: QIVLTQSPAIMSISPGERVTMTCSASSGLTYMYWYQQKPGSSPRLLIYDTSNLASGVPVRFSGSGSGTSYSLTISRMEAEDAATYYCQQWKSFPPTFGGGTKLEIKR
notes: also called SMC1A-ALPHA1
For B3, in assay [1], the binding result was “binds”.

B4: chimeric SMC1A1 mAb (antibody, V domains shown)
VH: B3 VH
VL: B3 VL
notes: also called SMC1A-ALPHA1
For the molecule B4, the binding result in assay [2] is “binds”.

B5: meditope-enabled SMC1A4 (antibody, human IgG1, kappa, V domains shown)
VH: EVQLVESGGGLVQPGGSLRLSCAASGFNIKDPYMHWVRQSPGKGLEWIGWITPANGNTKYADSVKGRATISADTSKNTAYLQMNSLRAEDTAIYFCARSGDAYYWAWFAYWGQGTLVTVSS
VL: DVQMTQSPILLSASVGDRVTITCRSSQSIVHSNGNTYLEWYQQRTNGSPRLLIYKVSNRFSGVPSRFSGSGSGTDFTLTISSLQPEDIADYYCFQGPLYTFGAGTKVEIKR
notes: It was detected with anti-human secondary antibodies; also called SMC1A4-me; SMC1A4-ME
B5: the binding result in assay [3] is on record as “binds”.

For the origin of these results see patent publication US20230340089A1 (CITY OF HOPE, published 2023).
